From patent publication US20250243277A1 (AVACTA LIFE SCIENCES, published 2025)

B1: Clone 109 (designed binder)
chain: MIPGGLSEAKPATPEIQEIVDKVKPQLEEKTGETYGKLEAVQYKTQVDISGVGLVPNGTNYYIKVRAGDNKYMHLKVFKSLNWNYPQQPFEDLVLTGYQVDKNKDDELTGF
notes: His-tagged
B2: Clone 40 (designed binder)
chain: MIPGGLSEAKPATPEIQEIVDKVKPQLEEKTGETYGKLEAVQYKTQVVKRRHFPQWQGTNYYIKVRAGDNKYMHLKVFKSLGDHLNQYPNEDLVLTGYQVDKNKDDELTGF
notes: His-tagged
B3: Clone 246 (designed binder)
chain: MIPGGLSEAKPATPEIQEIVDKVKPQLEEKTGETYGKLEAVQYKTQVVERFHFPQFPGTNYYIKVRAGDNKYMHLKVFKSLPHLDYIWNWEDLVLTGYQVDKNKDDELTGF
notes: His-tagged
B4: Clone 247 (designed binder)
chain: MIPGGLSEAKPATPEIQEIVDKVKPQLEEKTGETYGKLEAVQYKTQVVRREHFPRWPGTNYYIKVRAGDNKYMHLKVFKSLDLLLRKEEVEDLVLTGYQVDKNKDDELTGF
notes: His-tagged
B5: Clone 184 (designed binder)
chain: MIPGGLSEAKPATPEIQEIVDKVKPQLEEKTGETYGKLEAVQYKTQVVHRKHFHQFTGTNYYIKVRAGDNKYMHLKVFKSLSNDYYETYLEDLVLTGYQVDKNKDDELTGF
notes: His-tagged
B6: Clone 175 (designed binder)
chain: MIPGGLSEAKPATPEIQEIVDKVKPQLEEKTGETYGKLEAVQYKTQVVWRRWFPQWPGTNYYIKVRAGDNKYMHLKVFKSLPEADADDPKEDLVLTGYQVDKNKDDELTGF
notes: His-tagged
B7: Clone 48 (designed binder)
chain: MIPGGLSEAKPATPEIQEIVDKVKPQLEEKTGETYGKLEAVQYKTQVVTRKHFPQYWGTNYYIKVRAGDNKYMHLKVFKSLNEPLPVTNIEDLVLTGYQVDKNKDDELTGF
notes: His-tagged
B8: Clone 101 (designed binder)
chain: MIPGGLSEAKPATPEIQEIVDKVKPQLEEKTGETYGKLEAVQYKTQVDHHHRFAKWWGTNYYIKVRAGDNKYMHLKVFKSLWFNENREDTEDLVLTGYQVDKNKDDELTGF
notes: His-tagged
B9: Clone 11 (designed binder)
chain: MIPGGLSEAKPATPEIQEIVDKVKPQLEEKTGETYGKLEAVQYKTQVVEVQQQENFQGTNYYIKVRAGDNKYMHLKVFKSLHIYEHIVYREDLVLTGYQVDKNKDDELTGF
notes: His-tagged
B10: Clone 103 (designed binder)
chain: MIPGGLSEAKPATPEIQEIVDKVKPQLEEKTGETYGKLEAVQYKTQVDFSFPLVHWYGTNYYIKVRAGDNKYMHLKVFKSLRFRDGGHHVEDLVLTGYQVDKNKDDELTGF
notes: His-tagged
B11: Clone 107 (designed binder)
chain: MIPGGLSEAKPATPEIQEIVDKVKPQLEEKTGETYGKLEAVQYKTQVDFTDIHWSTWGTNYYIKVRAGDNKYMHLKVFKSLIPAWQQIHVEDLVLTGYQVDKNKDDELTGF
notes: His-tagged
B12: Clone 108 (designed binder)
chain: MIPGGLSEAKPATPEIQEIVDKVKPQLEEKTGETYGKLEAVQYKTQVDREHASVKFWGTNYYIKVRAGDNKYMHLKVFKSLWLEATPHTQEDLVLTGYQVDKNKDDELTGF
notes: His-tagged
B13: Clone 10 (designed binder)
chain: MIPGGLSEAKPATPEIQEIVDKVKPQLEEKTGETYGKLEAVQYKTQVVDDVKNGFVQGTNYYIKVRAGDNKYMHLKVFKSLIDRHVYWLEEDLVLTGYQVDKNKDDELTGF
notes: His-tagged
B14: Clone 105 (designed binder)
chain: MIPGGLSEAKPATPEIQEIVDKVKPQLEEKTGETYGKLEAVQYKTQVDETSENVIQWGTNYYIKVRAGDNKYMHLKVFKSLWPADILTQHEDLVLTGYQVDKNKDDELTGF
notes: His-tagged
B15: Clone 1 (designed binder)
chain: MIPGGLSEAKPATPEIQEIVDKVKPQLEEKTGETYGKLEAVQYKTQVVVYHVRWNYLGTNYYIKVRAGDNKYMHLKVFKSLSLEEPPVETEDLVLTGYQVDKNKDDELTGF
notes: His-tagged
B16: Clone 95 (designed binder)
chain: MIPGGLSEAKPATPEIQEIVDKVKPQLEEKTGETYGKLEAVQYKTQVDTIHPQAKYWGTNYYIKVRAGDNKYMHLKVFKSLWKNLLKPIHEDLVLTGYQVDKNKDDELTGF
notes: His-tagged
B17: Clone 104 (designed binder)
chain: MIPGGLSEAKPATPEIQEIVDKVKPQLEEKTGETYGKLEAVQYKTQVDNAHPLVKNWGTNYYIKVRAGDNKYMHLKVFKSLWRNDTSSIYEDLVLTGYQVDKNKDDELTGF
notes: His-tagged
B18: Clone 102 (designed binder)
chain: MIPGGLSEAKPATPEIQEIVDKVKPQLEEKTGETYGKLEAVQYKTQVDRKAAVVARHGTNYYIKVRAGDNKYMHLKVFKSLWPFLVIEKYEDLVLTGYQVDKNKDDELTGF
notes: His-tagged
B19: Clone 56 (designed binder)
chain: MIPGGLSEAKPATPEIQEIVDKVKPQLEEKTGETYGKLEAVQYKTQVVGGRHRWNWSGTNYYIKVRAGDNKYMHLKVFKSLFEPSGLAAEEDLVLTGYQVDKNKDDELTGF
notes: His-tagged
B20: Clone 86 (designed binder)
chain: MIPGGLSEAKPATPEIQEIVDKVKPQLEEKTGETYGKLEAVQYKTQVVDVRGQWAWTGTNYYIKVRAGDNKYMHLKVFKSLFQPRTKATEEDLVLTGYQVDKNKDDELTGF
notes: His-tagged
B21: Clone 84 (designed binder)
chain: MIPGGLSEAKPATPEIQEIVDKVKPQLEEKTGETYGKLEAVQYKTQVVLIRHLWSWSGTNYYIKVRAGDNKYMHLKVFKSLFEGENHQIDEDLVLTGYQVDKNKDDELTGF
notes: His-tagged
B22: Clone 194 (designed binder)
chain: MIPGGLSEAKPATPEIQEIVDKVKPQLEEKTGETYGKLEAVQYKTQVVEERRIWNWTGTNYYIKVRAGDNKYMHLKVFKSLFTASDTHPAEDLVLTGYQVDKNKDDELTGF
notes: His-tagged
B23: Clone 149 (designed binder)
chain: MIPGGLSEAKPATPEIQEIVDKVKPQLEEKTGETYGKLEAVQYKTQVVKTLGVWHWSGTNYYIKVRAGDNKYMHLKVFKSLFEQHAENIEEDLVLTGYQVDKNKDDELTGF
notes: His-tagged
B24: Clone 77 (designed binder)
chain: MIPGGLSEAKPATPEIQEIVDKVKPQLEEKTGETYGKLEAVQYKTQVVWDRPRWGWTGTNYYIKVRAGDNKYMHLKVFKSLFKESSRNDEEDLVLTGYQVDKNKDDELTGF
notes: His-tagged

Target: T1, human PD-L1-Fc (R&D Systems) (human, UniProt Q9NZQ7 19-239)
T1 construct: Bought from R&D Systems; Biotinylated in-house for the phage selection; also called huPD-L1-Fc; human PD-L1-Fc antigen; not shown: Fc part of the bought fusion
Assay: soluble Affimer ELISA

T1 sequence (Q9NZQ7 19-239 limits assumed): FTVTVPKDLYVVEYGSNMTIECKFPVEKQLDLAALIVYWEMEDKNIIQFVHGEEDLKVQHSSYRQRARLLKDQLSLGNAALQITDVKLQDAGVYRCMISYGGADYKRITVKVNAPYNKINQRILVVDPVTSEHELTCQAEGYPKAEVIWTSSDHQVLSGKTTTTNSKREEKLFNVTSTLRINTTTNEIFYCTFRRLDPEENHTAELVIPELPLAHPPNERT

Binding result, binds:
B1
B2
B3
B4
B5
B6
B7
B8
B9
B10
B11
B12
B13
B14
B15
B16
B17
B18
B19
B20
B21
B22
B23
B24
